Sequences and labels used below:
B1: SNAP-Fbs1 fusion protein (wild-type human Fbs1 sugar-binding domain, residues 92-296) [human] / fetuin [modified: sialylated complex N-linked glycans; sialylated complex N-linked glycans] [not stated] (parent)
chain 1: CQQEGLVPEGGVEEERDHWQQFYFLSKRRRNLLRNPCGEEDLEGWCDVEHGGDGWRVEELPGDSGVEFTHDESVKKYFASSFEWCRKAQVIDLQAEGYWEELLDTTQPAIVVKDWYSGRSDAGCLYELTVKLLSEHENVLAEFSSGQVAVPQDSDGGGWMEISHTFTDYGPGVRFVRFEHGGQDSVYWKGWFGARVTNSSVWVEP
chain 2: IPLDPVAGYKEPACDDPDTEQAALAAVDYINKHLPRGYKHTLNQIDSVKVWPRRPTGEVYDIEIDTLETTCHVLDPTPLANCSVRQQTQHAVEGDCDIHVLKQDGQFSVLFTKCDSSPDSAEDVRKLCPDCPLLAPLNDSRVVHAVEVALATFNAESNGSYLQLVEISRAQFVPLPVSVSVEFAVAATDCIAKEVVDPTKCNLLAEKQYGFCKGSVIQKALGGEDVRVTCTLFQTQPVIPQPQPDGAEAEAPSAVPDAAGPTPSAAGPPVASVVVGPSVVAVPLPLHRAHYDLRHTFSGVASVESSSGEAFHVGKTPIVGQPSIPGGPVRLCPGRIRYFKI

The assay covers variants of B1. Description: fetuin bead pulldown, SDS-PAGE quantified by ImageJ. Conditions: with fetuin [modified: sialylated complex N-linked glycans, E. coli cell lysate containing the same amount of wt Fbs1 or variant Fbs1 fusion protein, parent: 1, read off a plot.
Regarding chain 1 D63P S64P G65S, the ratio to parent turned out to be 2.5 fold change. As to chain 1 D63P S64P, the ratio to parent was determined as 1.7 fold change.

Source of the values: PMC5457524, “An engineered high affinity Fbs1 carbohydrate binding protein for selective capture of N-glycans and N-glycopeptides” (Nature Communications, 2017).
